We go through one molecule from publication PMC12749841 (Nature Communications, 2025).

In the test the target is importin β (human, UniProt Q14974 1-876). Put plainly: cryo-EM structure.
Chain of importin β (Q14974 whole entry): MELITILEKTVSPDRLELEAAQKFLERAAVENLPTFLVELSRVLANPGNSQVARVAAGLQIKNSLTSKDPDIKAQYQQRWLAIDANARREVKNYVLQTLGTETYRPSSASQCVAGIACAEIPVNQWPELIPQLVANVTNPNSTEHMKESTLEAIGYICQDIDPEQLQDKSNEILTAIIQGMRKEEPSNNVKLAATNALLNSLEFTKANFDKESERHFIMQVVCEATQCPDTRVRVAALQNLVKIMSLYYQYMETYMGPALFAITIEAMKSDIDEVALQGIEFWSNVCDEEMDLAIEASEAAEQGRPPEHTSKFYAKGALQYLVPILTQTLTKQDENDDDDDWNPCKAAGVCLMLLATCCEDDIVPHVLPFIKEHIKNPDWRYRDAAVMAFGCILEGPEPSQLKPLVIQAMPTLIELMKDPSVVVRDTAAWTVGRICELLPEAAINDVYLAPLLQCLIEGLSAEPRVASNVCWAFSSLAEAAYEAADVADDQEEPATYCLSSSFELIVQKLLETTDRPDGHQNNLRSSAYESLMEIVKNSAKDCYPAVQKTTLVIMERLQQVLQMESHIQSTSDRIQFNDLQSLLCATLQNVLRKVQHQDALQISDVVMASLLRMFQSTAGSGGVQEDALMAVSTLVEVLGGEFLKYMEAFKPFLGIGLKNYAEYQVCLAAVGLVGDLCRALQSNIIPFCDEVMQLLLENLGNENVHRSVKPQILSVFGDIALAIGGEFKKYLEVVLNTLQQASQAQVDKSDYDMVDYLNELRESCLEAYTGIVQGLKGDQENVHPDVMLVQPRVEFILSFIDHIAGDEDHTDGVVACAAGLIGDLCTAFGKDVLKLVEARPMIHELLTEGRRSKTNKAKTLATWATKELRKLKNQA

B1: importin α1 IBB domain (res 1–65) fused to 6xHis Maltose Binding Protein (domain or fragment)
chain: not shown
B1: the binding result is “binds”.
